This is an account of results in publication PMC11376072, “Moderately thermostable GH1 β-glucosidases from hyperacidophilic archaeon Cuniculiplasma divulgatum S5” (FEMS Microbiology Ecology, 2024).

Data set [1] deals with the molecule itself. Description: SEC; size-exclusion chromatography of the purified protein; conditions not given. A general note: In gel filtration, larger molecules generally elute earlier.
Substrate in the data set “purified protein”: O=[N+]([O-])c1ccc(O[C@@H]2O[C@H](CO)[C@@H](O)[C@H](O)[C@H]2O)cc1
Description: purified protein. Conditions: 50 mM MES pH 5.0, 30°C, 30 min, 0-10 mM substrate.

B1: CIB12, GH1 β-glucosidase from Cuniculiplasma divulgatum S5 (enzyme)
chain: MFPKNFKFGFSEAGFQFEMGVSDIDTNTDWYKWSHDSENIKNHIVSGDRPEEGVGYWDLYPKDHDLAEYIGMNAARIGIEWSRIFPVSTERVTVEVIEENGDILEIKITEKTIKELDLLSDKNAMQHYTNIFNDIKKRGWFLVINLFHWSLPLWINDPSNRNSEKDNALGNCMNRSSVIEFVKYAAYISYYFGSIADRFATMNEPNEVFKTCSEDKRVESYHIRMKWFVEAHARSYDAMKQFTNRQIGVIYANGDVQSFENKDPKLKEEVEYEQRYSFFDALIHGDVHWYVGACRKTNHVHGKSIRPDLSNRIDWIGVNYYSRNVVKRKEDGYENVRGLGYDTGWVSYEKSLDGRSVSETGWEIYPEGIYNIVMSYHKRYELPMMITENGMADDNDRFRPRYLVSHLKNLERAINDGAKVDGYLHWALTDNFEWGSGFSKKFGLIKVDYKTKKRYLRPSALIMKEITKHNGIPEELEWLGEDKF
notes: CIB12, GH1 β-glucosidase of Cuniculiplasma divulgatum S5 (JCM 30642), GenBank SIM59545.1, locus tag CSP5_0942; predicted monomeric mass 56.8 kDa; Cloned into p15TvL with an N-terminal 6His-tag; also called CSP5_0942; source: E. coli BL21(DE3) Lobstr, purified (Ni-NTA)
One may read the stoichiometry N as a count of units in the complex or per binding partner. A word on the Km: it is the concentration of substrate that gives half-maximal velocity. As a reminder, the Vmax is the top rate of the reaction or transport when substrate is in excess. Usually kcat stands for the maximal rate divided by the concentration of active sites. With B1, the “stoichiometry N” value in data set [1] was found to be 2. Besides, in the data set “purified protein”, the Km was 500 ± 100 µM, the Vmax worked out at 0.61 µmol/min/mg and the kcat came out at 0.57 s⁻¹.

B2: CIB13, GH1 β-glucosidase from Cuniculiplasma divulgatum S5 (enzyme)
chain: MLPKGFRFGFSLAGFQSEMGLSGKDENSDWYQWCHDEYNIKNGVVSGDFPENGAAYWDLFRKDHETAVNIGMNSTRIGIEWSRIFPTSTEGVKVRIDRDGDNITGITIEKSDLESLKKICNMDAVKKYREIFMDLKDRNFYMILNLFHWSMPLWINDPRKREISKGNNLGNFFSEKSVIEFAKFAAFAAYSFDDLVDVYSTMNEPNVVFSGGNNNSEKKYYSKMKFFIEAHARAYDCIRTISRKRIGVIYANEHIESLENSDPELVEEVTWRNRYSFIDSIKSGKTFSTKNMEENSRWPEKNVFRKDLENRLDWIGVNYYSRYVVRRIESGFEAIDGYGFLCSGYEKSKDGRVVSEMGWEIYPQGLYDVLMGYQERYSLPMMVTENGIADDMDRYRPGFLISHMKMIERAIKDGAGVEGYLHWSLTDNFEWSSGFSKKFGLLRVDYRTKKRSIRPSALVFREISKKSGVPEELEWLGERFY
notes: CIB13, GH1 β-glucosidase of Cuniculiplasma divulgatum S5 (JCM 30642), GenBank SIM79973.1, CSP5_1651; predicted monomeric mass 56.1 kDa; Cloned into p15TvL with an N-terminal 6His-tag; also called CSP5_1651; source: E. coli BL21(DE3) Lobstr, purified (Ni-NTA)
As for B2, the “stoichiometry N” value in data set [1] came out at 2. Also, in “purified protein”, the Km was determined as 900 ± 100 µM, the Vmax was 0.93 µmol/min/mg and the kcat is 0.87 s⁻¹.
